# Source: paper PMC2139825
# pKd: −log10 of the molar value.
# Target: bacterially expressed full-length chicken CRP1 (chicken) (UniProt P67966)
# Test: radioligand binding
# Chain of UniProt P67966 (P67966 whole entry): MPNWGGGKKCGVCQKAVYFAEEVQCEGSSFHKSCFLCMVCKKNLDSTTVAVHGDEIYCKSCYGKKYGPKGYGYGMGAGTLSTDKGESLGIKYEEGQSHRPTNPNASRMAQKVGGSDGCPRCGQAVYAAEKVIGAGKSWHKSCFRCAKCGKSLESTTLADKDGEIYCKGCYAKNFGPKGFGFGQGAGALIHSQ
substance,measurement,value
α-actinin (avian smooth muscle) (from UniProt P05094 1-893) (natural protein),pKd,5.74
same,"cpm bound specifically (0.26 pmoles [125I]α-actinin in 120 μl, no competitor)",3080 cpm
